This note sets out measurements from US8389575B2, “Control of enzymatic peracid generation” (E.I. du Pont de Nemours and Company, priority 2008, dated 2013).

Data set [1] is described as follows: Dependence of specific activity on pH for hydrolysis of triacetin by CE-7 esterases/perhydrolases (cell extracts of E. coli KLP18 transformants). The format is biochemical. The note with it: 200 mM triacetin, 25° C. As to the method:
A cell extract of an E. coli transformant expressing perhydrolase from Thermotoga neapolitana (KLP18/pSW196), Thermotoga maritima MSB8 (KLP18/pSW207), Bacillus pumilus PS213 (KLP1S/pSW195), Bacillus subtilis BE1010 (KLP18/pSW189), Bacillus subtilis ATCC® 31954™ (KLP18/pSW194), or Bacillus licheniformis ATCC® 14580™ (KLP18/pSW191) was prepared by passing a suspension of cell paste (20 wt % wet cell weight) in 0.05 M potassium phosphate buffer (pH 7.0) containing dithiothreitol (1 mM) twice through a French press having a working pressure of 16,000 psi (˜110 MPa). The crude extract was then centrifuged at 20,000×g to remove cellular debris, producing a clarified cell extract that was assayed for total soluble protein (Bicinchoninic Acid Kit for Protein Determination, Sigma Aldrich catalog #BCA1-KT). A portion of the clarified Thermotoga maritima MSB8 or Thermotoga neapolitana perhydrolase-containing extract was additionally heated for 20 min at 75° C., followed immediately by cooling in an ice/water bath to 5° C. The resulting mixture was centrifuged to remove precipitated protein, and the supernatant collected and assayed for total soluble protein as before.
Reactions (10 mL total volume) containing triacetin (200 mM) and cell extract supernatant (prepared as described above) were run at 25° C. and at a pH between 4.5 and 10.0, using the buffers and buffer concentrations listed in Table 5. The concentration of extract total protein (with or without heat-treatment to denature and precipitate E. coli-derived protein) was chosen to produce an ca. 50 mM decrease in triacetin concentration over 30 min (typically from 0.025 mg/mL to 0.40 mg/mL of total extract protein, dependent on the perhydrolase). A control reaction for each reaction condition was run to determine the concentration of triacetin hydrolyzed in the absence of added extract protein. Samples (100 μL) were removed at predetermined times and immediately added to 297 μL of dd H2O and 3 μL of 6N HCL. The resulting solution was mixed, then filtered using a 30,000 NMWL filter (Millipore) using a microcentrifuge for 2 min at 12,000 rpm. An aliquot of the filtrate (100 μL) was added to 150 μL of 0.417 mM N,N-diethyl meta-toluamide (external standard) in acetonitrile, and the resulting solution analyzed for triacetin by HPLC using a Supelco Discovery C8 column (25 cm×4.0 mm, 5 um; Supelco #59353-U40) and an isocratic mobile phase of 40% acetonitrile/60% distilled water at a flow rate of 1 mL/min. Triacetin was measured by UV detection at 225 nm.

The nature of data set [2]: Peracetic acid production by perhydrolases, control by initial reaction pH in sodium citrate buffer. The note with it: triacetin 100 mM, 0.050 mg/mL extract total protein, 25° C. It is filed as biochemical. As to the method:
A cell extract of a transformant expressing perhydrolase from Bacillus pumilus PS213 (KLP18/pSW195), Thermotoga maritima MSB8 (KLP18/pSW207), Thermotoga neapolitana (KLP18/pSW196), or Bacillus subtilis ATCC® 31954™ (KLP18/pSW194) was prepared by passing a suspension of cell paste (20 wt % wet cell weight) in 0.05 M potassium phosphate buffer (pH 7.0) containing dithiothreitol (1 mM) twice through a French press having a working pressure of 16,000 psi (˜110 MPa). The crude extract was then centrifuged at 20,000×g to remove cellular debris, producing a clarified cell extract that was assayed for total soluble protein (Bicinchoninic Acid Kit for Protein Determination, Sigma Aldrich catalog #BCA1-KT). The supernatant was frozen in dry ice and stored at −80° C.
Reactions (10 mL total volume) containing triacetin, hydrogen peroxide and centrifuged cell extract supernatant (prepared as described above) in 50 mM sodium citrate buffer (initial pH 7.2 or 6.5) were run at 25° C. A control reaction for each reaction condition was run to determine the concentration of peracetic acid produced by chemical perhydrolysis of triacetin by hydrogen peroxide in the absence of added extract protein (data not shown). Determination of the concentration of peracetic acid in the reaction mixtures was performed according to the method described by Karst et al., supra.

Setting [3] is: pH 7.0, potassium phosphate 0.15 M.
Setting [4] is: pH 7.5, potassium phosphate 0.15 M.
Setting [5] is: pH 8.0, potassium phosphate 0.20 M.
Setting [6] is: pH 8.5, Tris(hydroxymethyl)aminomethane 0.20 M.
Setting [7] is: pH 9.0, Tris(hydroxymethyl)aminomethane 0.20 M.
Setting [8] is: initial pH 6.5, sodium citrate 50 mM, H2O2 100 mM.
Where [9] appears, read: initial pH 6.5, sodium citrate 50 mM, H2O2 250 mM.
Where [10] appears, read: initial pH 7.2, sodium citrate 50 mM, H2O2 100 mM.
Setting [11] is: initial pH 7.2, sodium citrate 50 mM, H2O2 250 mM.

B1: Thermotoga neapolitana perhydrolase: acetyl xylan esterase with perhydrolase activity from Thermotoga neapolitana (SEQ ID NO: 14), cell extract of E. coli KLP18/pSW196 (protein, listed as Thermotoga neapolitana)
chain: MAFFDMPLEELKKYRPERYEEKDFDEFWRETLKESEGFPLDPVFEKVDFHLKTVETYDVTFSGYRGQRIKGWLLVPKLAEEKLPCVVQYIGYNGGRGFPHDWLFWPSMGYICFVMDTRGQGSGWMKGDTPDYPEGPVDPQYPGFMTRGILDPGTYYYRRVFVDAVRAVEAAISFPRVDSRKVVVAGGSQGGGIALAVSALSNRVKALLCDVPFLCHFRRAVQLVDTHPYVEITNFLKTHRDKEEIVFRTLSYFDGVNFAARAKVPALFSVGLMDTICPPSTVFAAYNHYAGPKEIRIYPYNNHEGGGSFQAIEQVKFLKRLFEEG
B1: the “specific activity (mmol triacetin/min/mg total extract protein)” value in data set [1] (pH 5.5, sodium acetate 0.15 M) is reported as 0 mmol triacetin/min/mg total extract protein; in data set [1] (pH 6.0, sodium citrate 0.15 M), 0.4 mmol triacetin/min/mg total extract protein; in data set [1] (pH 6.5, sodium citrate 0.15 M), 1.7 mmol triacetin/min/mg total extract protein; in data set [1] (setting [3]), 3.3 mmol triacetin/min/mg total extract protein; in data set [1] (setting [4]), 5.3 mmol triacetin/min/mg total extract protein; in data set [1] (setting [5]), 5.8 mmol triacetin/min/mg total extract protein. The “specific activity (mmol triacetin/min/mg total extract protein)” value in data set [1] (setting [6]) was 11.3 mmol triacetin/min/mg total extract protein; in data set [1] (setting [7]), 12.5 mmol triacetin/min/mg total extract protein; in data set [1] (pH 9.5, glycine 0.20 M), 12.0 mmol triacetin/min/mg total extract protein; in data set [1] (pH 10.0, glycine 0.20 M), 0 mmol triacetin/min/mg total extract protein. Moreover, the “PAA, 1 min (ppm)” value in data set [2] (setting [8]) was 221 ppm; in data set [2] (setting [9]), 434 ppm; in data set [2] (setting [10]), 798 ppm; in data set [2] (setting [11]), 1790 ppm. The “PAA, 5 min (ppm)” value is 607 ppm in data set [2] (setting [8]), 1260 ppm in data set [2] (setting [9]), 1748 ppm in data set [2] (setting [10]) and 2860 ppm in data set [2] (setting [11]). Also, the “PAA, 30 min (ppm)” value came to 1925 ppm in data set [2] (setting [8]), 2016 ppm in data set [2] (setting [9]), 2500 ppm in data set [2] (setting [10]) and 3820 ppm in data set [2] (setting [11]).

B2: Thermotoga maritima MSB8 perhydrolase: acetyl xylan esterase with perhydrolase activity from Thermotoga maritima MSB8 (SEQ ID NO: 16), cell extract of E. coli KLP18/pSW207 (protein, listed as Thermotoga maritima)
chain: MAFFDLPLEELKKYRPERYEEKDFDEFWEETLAESEKFPLDPVFERMESHLKTVEAYDVTFSGYRGQRIKGWLLVPKLEEEKLPCVVQYIGYNGGRGFPHDWLFWPSMGYICFVMDTRGQGSGWLKGDTPDYPEGPVDPQYPGFMTRGILDPRTYYYRRVFTDAVRAVEAAASFPQVDQERIVIAGGSQGGGIALAVSALSKKAKALLCDVPFLCHFRRAVQLVDTHPYAEITNFLKTHRDKEEIVFRTLSYFDGVNFAARAKIPALFSVGLMDNICPPSTVFAAYNYYAGPKEIRIYPYNNHEGGGSFQAVEQVKFLKKLFEKG
B2: the “specific activity (mmol triacetin/min/mg total extract protein)” value in data set [1] (pH 5.5, sodium acetate 0.15 M) is recorded as 1.4 mmol triacetin/min/mg total extract protein; in data set [1] (pH 6.0, sodium citrate 0.15 M) it was 4.3 mmol triacetin/min/mg total extract protein; in data set [1] (pH 6.5, sodium citrate 0.15 M), 10.3 mmol triacetin/min/mg total extract protein; in data set [1] (setting [3]) it was 16.0 mmol triacetin/min/mg total extract protein; in data set [1] (setting [4]), 19.8 mmol triacetin/min/mg total extract protein; in data set [1] (setting [5]) it was 28.7 mmol triacetin/min/mg total extract protein. In addition, the “specific activity (mmol triacetin/min/mg total extract protein)” value in data set [1] (setting [6]) is recorded as 38.8 mmol triacetin/min/mg total extract protein; in data set [1] (setting [7]), 57.1 mmol triacetin/min/mg total extract protein; in data set [1] (pH 9.5, glycine 0.20 M), 21.6 mmol triacetin/min/mg total extract protein. The “PAA, 1 min (ppm)” value worked out at 53 ppm in data set [2] (setting [8]), 95 ppm in data set [2] (setting [9]), 210 ppm in data set [2] (setting [10]) and 635 ppm in data set [2] (setting [11]). The “PAA, 5 min (ppm)” value amounted to 279 ppm in data set [2] (setting [8]), 742 ppm in data set [2] (setting [9]), 610 ppm in data set [2] (setting [10]) and 1725 ppm in data set [2] (setting [11]). In addition, the “PAA, 30 min (ppm)” value came to 1540 ppm in data set [2] (setting [8]), 2446 ppm in data set [2] (setting [9]), 1995 ppm in data set [2] (setting [10]) and 3565 ppm in data set [2] (setting [11]).
